Source: the supplement of paper PMC11865577

What was measured:
Assay in all cases: pull-down binding Z-score (relative to library population); higher = stronger binding
[1] = tested on: G-clamp-N3 (biotin conjugate); settings: RNA library: Library-1 (pre-miRNA loops + repeats)
Outline: (§1)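 The RNA library, end-labelled with Cy5 or Cy3, was heat-folded in phosphate/NaCl/KCl buffer, and 1 μg was incubated at 25 °C for 60 min with streptavidin beads carrying 100 pmol of biotin-conjugated small molecule. Hot SDS released the bound RNA, which was then hybridised to a DNA barcode microarray for 20 h at 55.5 °C. For scoring binding, signal from beads alone was subtracted, replicate barcoded probes were averaged after discarding the highest and lowest, and each value was turned into a Z-score from the library mean and standard deviation.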

[2] = tested on: TO-3-N3 (biotin conjugate); settings: RNA library: Library-2
Outline: as §1

[3] = tested on: TO-3-N3-2 (biotin conjugate); settings: RNA library: Library-2
Outline: as §1

TO-N3 (biotin conjugate) = settings: RNA library: Library-2
Outline: as §1

[4] = tested on: TO-N3-2 (biotin conjugate); settings: RNA library: Library-2
Outline: as §1

Sequence | pull-down binding Z-score [1] | pull-down binding Z-score [2] | pull-down binding Z-score [3] | pull-down binding Z-score (TO-N3 (biotin conjugate)) | pull-down binding Z-score [4]
CAUGCAGGCCACACUGACGGUAACGUUGCAGG [hsa-mir-431] | 1.54 | 0.647 | 0.263 | 1.08 | 1.01
CAUGCAUGUGUCUAGAAAUAUGUUUU [hsa-mir-507] | 0.0271 | -0.147 | 0.0237 | 0.0527 | 0.104
CAUGCGCUAUCUCUGUGUCGUAUG [hsa-mir-380] | -0.269 | -0.0846 | -0.301 | -0.0621 | -0.0393
CAUGUAUGUGUAUAUACAUAUAUAUG [hsa-mir-297] | 1.71 | 0.635 | -0.125 | 0.218 | -0.648
CAUGUGCUGAGUUCGUGCCAUAUG [hsa-mir-654] | 0.492 | -0.615 | -0.228 | -0.299 | 0.41
CAUGUGGUGGAACGAUGGAAACGGAACAUG [hsa-mir-218-2] | 1.07 | -0.477 | -0.027 | 0.162 | 1
CAUGUUAAGUGUUGUCCUACAG [hsa-mir-5087] | -0.819 | -0.483 | -0.142 | -0.368 | 0.127
CAUUAACGUGGACCAGACAAUAUUAAUG [hsa-mir-4491] | -1.14 | -0.339 | -0.12 | -0.0907 | -0.0295
CAUUACUAAACUCAGUAAUG [hsa-mir-451b] | 0.93 | -0.822 | -0.862 | -1.23 | -1.68
CAUUCACAUAGACUAUAAUUGAAUG [hsa-mir-652] | 0.721 | -0.751 | -0.353 | -0.944 | -0.703
CAUUCUUUGCUA [hsa-mir-567] | -1.3 | 0.85 | -0.257 | 0.664 | -0.53
CAUUGGUGUAAAGCUGGAGACCCACUG [hsa-mir-324] | 0.528 | 0.527 | 0.0332 | 0.738 | 1.09
CAUUGUAACAUGAUAGUG [hsa-mir-4264] | 0.389 | -0.752 | -0.295 | -0.441 | -0.45
CAUUGUAAUAGUUCAUAUGGGCACUG [hsa-mir-3660] | 2.34 | -0.0141 | -0.109 | 0.0211 | 0.0148
CAUUUCAGCGUAUAUAUGUAUAUGUGGCUGUG [hsa-mir-19b-2] | 2.71 | 1.07 | 0.559 | 1.11 | 0.0211
CAUUUCCUUCAUGAUUAGGAAUACUACUUUGAAAUG [hsa-mir-4712] | -0.338 | -0.641 | -0.179 | -0.856 | -0.896
CAUUUGUGGCAUGGACCAUUUGUG [hsa-mir-4504] | -0.183 | -0.874 | -0.518 | -0.959 | -0.813
CCAAAGAAACUUUUUUGG [hsa-mir-6079] | -0.295 | -0.414 | -0.557 | -0.761 | -1.1
CCAAAUCAGAAAAGGAUUUGG [hsa-mir-4520-1] | 4.83 | -0.497 | -0.242 | -0.698 | -0.892

Sequence | pull-down binding Z-score [1] | pull-down binding Z-score [2] | pull-down binding Z-score [3] | pull-down binding Z-score (TO-N3 (biotin conjugate)) | pull-down binding Z-score [4]
CCAAAUCCUUUUCUGAUUUGG [hsa-mir-4520-2] | -0.824 | -0.645 | -0.574 | -1.03 | -1.69
CCAAAUUUCAUGCG [hsa-mir-4454] | -1.72 | -0.0597 | -0.18 | 0.0342 | -0.0452
CCAAGCUUAGUUUGG [hsa-mir-1302-11_1302-10_1302-3_1302-2_1302-9] | 0.00542 | 0.74 | -0.446 | 0.572 | -0.61
CCAAGGCUCUGGGGUCUCACCCUUGG [hsa-mir-6842] | 0.754 | 0.484 | -0.394 | 0.386 | 0.0499
CCAAGGUUGUGCUUUUAGGAAAUGUUGGCUGUCCUGCGG [hsa-mir-5739] | 0.485 | -0.448 | 0.205 | -0.157 | 0.49
CCAAGUCUGACCACCUGAGGAAUGCCUGG [hsa-mir-1269a] | -0.858 | -0.498 | -0.335 | -0.288 | 0.719
CCAAUGGUAUCCAGUGAUUCGUUGA [hsa-mir-4709] | -0.854 | -0.486 | -0.442 | -0.0552 | 0.186
CCACAUAGGAGGGACAGCGGCCUUUCCAACAGG [hsa-mir-9500] | -0.994 | 0.253 | 0.043 | 0.58 | 0.847
CCACCCACCAGGGAGCUUUCCAUGGGCUGUGGG [hsa-mir-4725] | 1.47 | 0.47 | 0.0654 | 0.567 | 0.788
CCACGGGCUGGGCACAGUGG [hsa-mir-3159] | 1.07 | 1.04 | 0.391 | 1.18 | 0.891
CCACUACCGGUGA [hsa-mir-4658] | -0.573 | -0.207 | -0.309 | -0.127 | -0.288
CCACUGGGAAUGCUCCCUGAGGACGUUAUAUGAGUG [hsa-mir-4319] | 0.953 | 0.544 | 0.399 | 0.802 | 0.872
CCAGGCCACAUAAUGAGCCAAA [hsa-mir-6771] | -1.04 | 0.665 | 0.198 | 0.899 | 0.607
CCAGGCCCCACGGAGAACCAGGGCACCUGG [hsa-mir-8058] | 0.303 | -0.288 | -0.353 | -0.188 | 0.492
CCAGGUUCCAUGUGAUGCUGAA [hsa-mir-6806] | 0.154 | -0.162 | 0.299 | 0.316 | 0.575
CCAGUGCUGGGCUCAGACCCUGG [hsa-mir-150] | 0.197 | -0.0352 | -0.226 | 0.0645 | 0.701
CCAGUGGUUUUCCUUGACUGUG [hsa-mir-298] | 1.54 | -0.421 | -0.472 | -0.416 | 0.0607
CCAUAAGCUGUCUAAAACUUCG [hsa-mir-4513] | -1.21 | -0.354 | -0.153 | -0.327 | -0.0485
CCAUACAAUAUUUGG [hsa-mir-1302-1] | -1.2 | -0.642 | -0.406 | -0.898 | -1.09
